Test: Biomolecule release quantification: incorporation efficiency and release kinetics of CpG ODN, GM-CSF and antigen from cryogel vaccines
Format: physicochemical
Conditions: for encapsulation efficiency: encapsulated in vaccine cryogel by cryo-polymerization

Substance: 5′-TCCATGACGTTCCTGACGTT-3′ [CpG-ODN, reference compound]
- encapsulation efficiency: 48%
- CpG-ODN eluted from the hydrogel (within the first 2 days): 50%

Substance: granulocyte-macrophage colony-stimulating factor [GM-CSF]
- burst release of the loaded amount (GM-CSF from vaccine cryogel, in vitro): about 8%
- encapsulation efficiency: 87%
- GM-CSF released (over the first 5 days in vitro): 85%
